Assay [1] concerns the target pyrene-labeled ADP-actin filaments (chicken breast muscle actin) (chicken, UniProt P68139 1-377, pyrene (pyrene iodoacetamide) on cysteine-374). As to the kind of experiment: other fluorescence titration.
Assay [2] deals with Mg-ATP-actin monomer (chicken breast muscle actin) (chicken, UniProt P68139 1-377). The assay can be described thus: inhibition of nucleotide exchange.

B1: cofilin-M3 (natural protein)
chain: MSFSGVKVSPECLEAFQELKLGKSLRYVVFKMNDTKTEIVVEKKSTDKDFDTFLGDLPEKDCRYAIYDFEFNLGEGVRNKIIFISWSPDVAPIKSKMVYSSSKDTLRRAFTGIGTDIQATDFSEVAYETVLAAVTRK
As for B1, the “Ka of the cooperative model (Kd = 1/(ω*Ka))” value in assay [1] came to 0.08 µM⁻¹. In addition, the Kd in assay [1] was 890 nM; in assay [2], 170 nM.

For orientation: Kd means the concentration at which binding is half-saturated. A high value points to a looser complex.

Source of the values: publication PMC3206353 (The Journal of Cell Biology, 2011).
